Data from patent publication US20260116991A1 (HAINAN SIMCERE ZAIMING PHARMACEUTICAL, published 2026).
Values belong to the binder of their own block, whether it stands above or below them.

How the values were obtained:
[1] = molecular target: T1, polypeptide GC3pep of human GPC3 (Ala524-Lys563) (human); test: ELISA, coated peptide
T1 construct: Residues Ala524-Lys563 of human GPC3 (NCBI NM_004484.3); coated on the ELISA plate; also called membrane proximal polypeptide GC3pep
T1 peptide: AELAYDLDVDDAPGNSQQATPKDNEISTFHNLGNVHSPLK

polypeptide GC3pep [2] = molecular target: T2, polypeptide GC3pep (human); test: ELISA, GC3pep coated, antibody 0.01 nM;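 note: bound antibody detected with an HRP-conjugated secondary antibody and TMB substrate, color reaction stopped with HCl before reading absorbance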
T2 construct: also called membrane proximal polypeptide GC3pep
T2 peptide: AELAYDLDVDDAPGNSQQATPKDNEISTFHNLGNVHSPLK

polypeptide GC3pep [3] = molecular target: T2, polypeptide GC3pep; test: ELISA, GC3pep coated, antibody 0.0001 nM
polypeptide GC3pep [4] = molecular target: T2, polypeptide GC3pep; test: ELISA, GC3pep coated, antibody 1 nM;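 note: bound antibody detected with an HRP-conjugated secondary antibody and TMB substrate, reaction stopped with HCl, after 2 h binding at 37 °C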
polypeptide GC3pep [5] = molecular target: T2, polypeptide GC3pep; test: ELISA, GC3pep coated, antibody 0.1 nM;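 note: antibody allowed to bind the coated plate 2 h at 37 °C, then detected via HRP-conjugated secondary antibody and TMB development for 10 min, stopped with HCl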
polypeptide GC3pep [6] = molecular target: T2, polypeptide GC3pep; test: ELISA, GC3pep coated, antibody 10 nM;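 note: antibody bound to the coated peptide for 2 h at 37 °C, detected through an HRP-conjugated secondary antibody with TMB colour development stopped by acid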
polypeptide GC3pep [7] = molecular target: T2, polypeptide GC3pep; test: ELISA, GC3pep coated, antibody 100 nM;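 note: detection with an HRP-conjugated secondary antibody and TMB substrate, color reaction stopped with HCl before absorbance reading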
murine GPC3-His protein = molecular target: T3, murine GPC3-His protein (murine, UniProt Q8CFZ4 25-558, limits assumed); test: SPR, antibody captured on Protein A chip, murine GPC3-His injected
T3 construct: bought protein; also called murine GPC3 protein

polypeptide GC3pep [8] = molecular target: T2, polypeptide GC3pep; test: ELISA, GC3pep coated, antibody 0.001 nM
[9] = molecular target: T4, murine GPC3-His protein (Sino Biological, Cat. No. 50989-M08B) (murine, UniProt Q8CFZ4 25-558); test: ELISA, coated antigen
T4 construct: Bought protein; also called murine GPC3 protein; mouse GPC3-his protein; not shown: His tag
T4 sequence (Q8CFZ4 25-558 limits assumed): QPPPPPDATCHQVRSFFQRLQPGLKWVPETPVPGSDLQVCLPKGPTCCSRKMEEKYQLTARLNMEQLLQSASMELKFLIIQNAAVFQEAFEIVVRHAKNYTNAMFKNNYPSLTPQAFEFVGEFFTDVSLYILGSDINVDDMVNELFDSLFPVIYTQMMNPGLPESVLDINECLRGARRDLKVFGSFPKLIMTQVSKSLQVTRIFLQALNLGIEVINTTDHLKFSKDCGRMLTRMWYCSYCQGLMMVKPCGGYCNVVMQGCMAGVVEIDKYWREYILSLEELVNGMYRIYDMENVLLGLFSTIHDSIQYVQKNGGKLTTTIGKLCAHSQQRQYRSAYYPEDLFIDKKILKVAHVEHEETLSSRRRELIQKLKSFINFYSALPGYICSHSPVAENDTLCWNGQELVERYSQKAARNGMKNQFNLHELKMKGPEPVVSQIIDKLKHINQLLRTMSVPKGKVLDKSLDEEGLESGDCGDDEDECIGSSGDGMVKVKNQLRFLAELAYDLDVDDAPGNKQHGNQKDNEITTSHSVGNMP

T3 sequence (Q8CFZ4 25-558 limits assumed): as above

binding result [1]: no binding (tested: 100 nM)
B1: F1.3.9 human-murine chimeric antibody (antibody, human IgG1, kappa, V domains shown)
VH: QVQLQQPGTELVKPGASVKLSCKASGYTFTSYWIHWVKQRPGQGLEWIGNINPPNAGTNYNEKFKSKATLTVDKSSSTAYMQLSSLTSEDSAVYYCARGRWLLHDYWGQGTTLTVSS
VL: DIQMTQSPASLSISVGETVTITCRASENIYSNLAWYQQKQGKSPQLLVYGTKNLAEGVPSRFSGSGSGTQYSLKINSLQSEDFGNYYCQHFWGTPYTFGGGTKLEILR
notes: Chimeric

OD450 nm (polypeptide GC3pep [2]): 0.05 OD450 nm
OD450 nm (polypeptide GC3pep [3]): 0.05 OD450 nm
OD450 nm (polypeptide GC3pep [4]): 0.05 OD450 nm
OD450 nm (polypeptide GC3pep [5]): 0.05 OD450 nm
OD450 nm (polypeptide GC3pep [6]): 0.05 OD450 nm
OD450 nm (polypeptide GC3pep [7]): 0.05 OD450 nm
Kd (murine GPC3-His protein): 0.844 nM
koff (murine GPC3-His protein): 0.000147 s⁻¹
kon (murine GPC3-His protein): 174000 M⁻¹ s⁻¹
OD450 nm (polypeptide GC3pep [8]): 0.05 OD450 nm
B2: F1.2.14 (antibody, human IgG1, kappa, V domains shown)
VH: RVQLQQSGAELVKPGASVRMSCKASGYTFTAYSIEWMKQNLGKSLEWIGNFRPYNDDTKYNENFKGRATLTVEKSSATVYLELSRLTSDDSAVYYCARSGPTDYFDYWGQGTTLIVSS
VL: DIQMTQSPASLSASVGETVTITCRASDNIYSYLAWYQQKQGQSPQLLVYNAKTLAEGVPSRFSGSGSVTQFSLKIISLQPEDFGTYYCQHHFGTPRTFGGGTKLEIKR
notes: human-murine chimeric antibody

binding result [1]: no binding (tested: 100 nM)
B3: F1.145.22 human-murine chimeric antibody (antibody, human IgG1, kappa, V domains shown)
VH: QVQLQQSGTDLARPGASVKLSCKASGYTFTSFGISWVKQRTGQGLEWIGEIYPRSGSPYYNEKFTGKATLTADKSSSTAYMELRSLTSEDSAVYFCAKDFGSSYVFDYWGQGTALTVSS
VL: DIQMTQSPASLSASVGETVTITCRASENIYSYLTWYQQKQGKSPQLLVYNAKTLAEGVPSRFSGSGSGTQFSLKINSLQPEDFGTYYCQHHYGTPPTFGTGTKLDLKR
notes: Chimeric

binding result [9]: no binding (tested: 100 nM)
binding result [1]: no binding (tested: 100 nM)
B4: F1.153.1 human-murine chimeric antibody (antibody, human IgG1, kappa, V domains shown)
VH: QIQLVQSGPELKKPGETVKISCKASGYTFTTAGMQWVQKMPGKGFKWIGWINTHSGEPQYAEDFKGRFAFSLETSASTAYLQISNLKNEDTATYFCARSFYYHGSSFFYFDYWGQGTTLTVSS
VL: DIVMTQSQKFMSTTVGDRVSITCKASQNVGTAVAWYQQKPGQSPKLLIYSASNRYTGVPDRFTGSGSGADFTLTISNMQSEDLADYFCQQYSRYPLTFGAGTKLELKR
notes: Chimeric

binding result [9]: no binding (tested: 100 nM)
binding result [1]: no binding (tested: 100 nM)
B5: F1.118.4 human-murine chimeric antibody (antibody, human IgG1, kappa, V domains shown)
VH: QVQLQQSGAELAKPGASVKLSCKASGYSFTSYWIHWVKQRPGQGLEWIGYINPSSGYTKYNQKFKDKATLTADKSSSTAYMQLSSLTYEDSAVYYCARFGSSSFYFDYWGQGTTLTVSS
VL: DIVLTQSPASLAVSLGQRATISCRASQSVSSSSYSYMHWYQQKPGQPPKLLIKYASNLDSGVPARFSGSGSGTDFTLNIHPVEEEDTATYYCQHSWEIPAFGGGTKLEIKR
notes: Chimeric

binding result [9]: no binding (tested: 100 nM)
binding result [1]: no binding (tested: 100 nM)
B6: F1.41.17 human-murine chimeric antibody (antibody, human IgG1, kappa, V domains shown)
VH: EVQLVESGGDSVKPGGSLKLSCAASGFTFSSYGMSWVRQTPDKRLEWVATINSGGSYTYYQDSVKGRFTISRDNAKNTLYLQMSSLKSEDTAIYYCVRHHYGSSYDYFDYWGQGTTLTVSS
VL: DIVMTQAAPSVPVMPGESVSISCRSSKSLLHSNGNTHLYWFLQRPGQSPQLLIYRMSNLASGVPDRFSGSGSGTAFTLRISRVEAEDVGVYYCMQHLEYPLTFGAGTKLELKR
notes: Chimeric

binding result [1]: no binding (tested: 100 nM)
B7: F4.18.4 human-murine chimeric antibody (antibody, human IgG1, kappa, V domains shown)
VH: QVQLHQSGAEMAKPGASVNLSCKTSGFTFTDYGISWVKQRTRQGLEWIGDIYPRHINIYYNEKFKDKATLTADRSSSTAYMELRSMTSEDSAVYFCARRGTTGRGALDYWGQGTSLTVSS
VL: DILLTQSPAILSVSPGERVSFSCRASQSIGTSIHWYQQRTNGSPRLLIKYAFESISGIPSRFGGSGSRTDFTLTINSVESEDIADYYCQQTYNWPYTFGGGTKLEIKR
notes: Chimeric

binding result [1]: no binding (tested: 100 nM)
B8: F1.62.9 human-murine chimeric antibody (antibody, human IgG1, kappa, V domains shown)
VH: QVQLQQSDAELVKPGASVKISCKVSGYIFTDHTIHWMKQRPEQGLEWIGYIYPRDGSIKYNENFKGKATLTADKSSSATYMQLNSLTSEDSAVYFCARPIYYDYAYYFDYWGQGTTLTVSS
VL: DVVMTQSPLSLPVSLGDQASISCRSRQSLVHSNGNTYLHWYLQKPGQSPKVLIYKVSNRFSGVPDRFSGSGSGTDFTLKISRVEAEDLGVYFCSQSTHVPYTFGGGTKLEIKR
notes: Chimeric

binding result [1]: no binding (tested: 100 nM)
B9: F4.26.1 human-murine chimeric antibody (antibody, human IgG1, kappa, V domains shown)
VH: QVQLKQSGPGLVQPSQSLSITCTVSGFSLTSYGVHWVRQSPGKGLEWLGVIWSSGNTDYNAVLISRLSIKKDDSKSQVFFKMNSPQVDDSAIYYCGRNGGWLLRGFMDFWGQGTSVTVSS
VL: DVVMTQTPLSLPVSLGDQASISCRSSQSLLHSNGNTYLHWYLQRSGQSPNLLIYKVSNRFSGVPDRFSGGGSGTDFTLKISRVEAEDLGIYFCSQSTHVPWTFGGGTKLEIKR
notes: Chimeric

binding result [1]: no binding (tested: 100 nM)
B10: F1.136.7 human-murine chimeric antibody (antibody, human IgG1, kappa, V domains shown)
VH: EVQLQQSGPVMVKPGPSVKISCQTSGFTFTDYYIHWVKQSHGKSLEWIGLVFPYDGGTNYNQKFKDKATLTLDTSSSTAYMELNSLTSEDSAVYYCARAGGFSYALNYWGQGTSVTVSS
VL: DIQMTQSPSSLSASLGGKVTITCKASQDINNYIAWYQHKPGKGPRLLIHFTSTLQPGIPSRFSGSGSGRDYSFSISNLEPEDIATYYCLQYDNLLLTFGAGTKLELKR
notes: Chimeric

OD450 nm (polypeptide GC3pep [2]): 0.05 OD450 nm
OD450 nm (polypeptide GC3pep [3]): 0.05 OD450 nm
OD450 nm (polypeptide GC3pep [4]): 0.05 OD450 nm
OD450 nm (polypeptide GC3pep [5]): 0.05 OD450 nm
OD450 nm (polypeptide GC3pep [6]): 0.05 OD450 nm
OD450 nm (polypeptide GC3pep [7]): 0.05 OD450 nm
Kd (murine GPC3-His protein): 0.0771 nM
koff (murine GPC3-His protein): 4.84e-05 s⁻¹
kon (murine GPC3-His protein): 628000 M⁻¹ s⁻¹
OD450 nm (polypeptide GC3pep [8]): 0.05 OD450 nm
B11: F1.21.8 (antibody, human IgG1, kappa, V domains shown)
VH: EVQLQQSGPELVKPGASVKISCKTSGFLFTGHYMHWVKSSHGNILDWIGYIYPYNAISFYNQKFKGKATLTVDKSSNTAYMELRSLTSEDSAVYYCARGDYGNYVTAYWGQGTLVTVSA
VL: DVLMTQTPLSLPVSLGDQASISCRSSQSIVHSSGNTYLEWYLQKPGQSPKLLIYKVSNRFSGVPDRFSGSGSGTDFTLKISRVEAEDLGVYYCFQGSHLPWTFGGGTKLDIKR
notes: as for B2

binding result [1]: no binding (tested: 100 nM)
B12: F1.115.8 human-murine chimeric antibody (antibody, human IgG1, kappa, V domains shown)
VH: EVQLQQSGPELVKPGASVKMSCKASGYTFTEYYMHWVKQSHGKSLEWIGYIYPNNGGNGYNQKFKGKATLTVDKSSSTAYMGLRSLTSEDSAVYYCVRGYYSNWYFDVWGTGTTVTVSS
VL: DVLMTQTPLSLPVSLGDQASISCRSSQSIVHSNGKTYLEWYLQKPGQSPKLLIYKVSNRFSGVPDRFSGSGSGTDFTLKISRVEAEDLGVYYCFQGSHVPFTFGSGTKLEIKR
notes: Chimeric

binding result [1]: no binding (tested: 100 nM)
B13: F1.111.11 human-murine chimeric antibody (antibody, human IgG1, kappa, V domains shown)
VH: EVQLQQSGPELVKPGASVKISCKASGYTFTDYYMNWVKQSHGKSLEWIGDIYPNNGDTTYNQRFKGKATLTVDKSSSTAYMELRSLASEDSAVYYCACPYNNPFGYWGQGTLVTVSA
VL: DVVMTQTPLSLPVSLGDQASISCRSSQSLVHSNGNTYLHWYLQKPGQSPKLLIYKVSNRFSGVPDRFSGSGSGTDFTLKISRVEAEDLGVYFCSQSTHVPWTFGGGTKLEIKR
notes: Chimeric

binding result [9]: no binding (tested: 100 nM)
binding result [1]: no binding (tested: 100 nM)
B14: F1.9.19 human-murine chimeric antibody (antibody, human IgG1, kappa, V domains shown)
VH: DVQLQESGPGLVKPSQSLSLTCSVTGYSITSGYYWNWIRQFPGNRLEWMAYISYDGINNYNPSLKNRISIARDTSTNQFFLKLNSVTSEDTATYYCATTTEVALFDHWGQGTTLTVSS
VL: DVLLTQTPLSLPVSLGDQASISCRSSQNIVHGNGNTYLEWFLQKPGQSPKLLIYKVSNRFSGVPDRFSGSGSGTDFTLKISRVEAEDLGLYYCFQASHVPWTFGGGTKLEIKR
notes: Chimeric

binding result [9]: no binding (tested: 100 nM)
binding result [1]: no binding (tested: 100 nM)
B15: F4.21.16 human-murine chimeric antibody (antibody, human IgG1, kappa, V domains shown)
VH: DVQLQESGPGLVKPSQSLSLTCSVTGYSITSGYYWNWIRQFPGNKLEWMGYISYDVTVNYNPSLKNRISITRDTSKNQFFLKLNSVTTEDTATYYCATITSVASMDHWGQGTSVTVSS
VL: DILMTQTPLSLPVSLGDQASISCRSSQNIVHRNGNTYLEWYLQKPGQSPKLLLYKVSNRFSGVPDRFSGSGSGTDFTLKISRVEAEDLGIYYCFQGSHFPFTFGSGTKLEIKR
notes: Chimeric

OD450 nm (polypeptide GC3pep [2]): 0.05 OD450 nm
OD450 nm (polypeptide GC3pep [3]): 0.06 OD450 nm
OD450 nm (polypeptide GC3pep [4]): 0.06 OD450 nm
OD450 nm (polypeptide GC3pep [5]): 0.06 OD450 nm
OD450 nm (polypeptide GC3pep [6]): 0.06 OD450 nm
OD450 nm (polypeptide GC3pep [7]): 0.15 OD450 nm
Kd (murine GPC3-His protein): 3.47 nM
koff (murine GPC3-His protein): 0.00045 s⁻¹
kon (murine GPC3-His protein): 129000 M⁻¹ s⁻¹
OD450 nm (polypeptide GC3pep [8]): 0.06 OD450 nm
B16: F1.111.11 (antibody, human IgG1, kappa, V domains shown)
VH: EVQLQQSGPELVKPGASVKISCKASGYTFTDYYMNWVKQSHGKSLEWIGDIYPNNGDTTYNQRFKGKATLTVDKSSSTAYMELRSLASEDSAVYYCACPYNNPFGYWGQGTLVTVSA
VL: DVVMTQTPLSLPVSLGDQASISCRSSQSLVHSNGNTYLHWYLQKPGQSPKLLIYKVSNRFSGVPDRFSGSGSGTDFTLKISRVEAEDLGVYFCSQSTHVPWTFGGGTKLEIKR
notes: as for B2

binding result [1]: no binding (tested: 100 nM)
B17: F4.13.7 human-murine chimeric antibody (antibody, human IgG1, kappa, V domains shown)
VH: QVQLQQPGAELVKPGASVKLSCKASGYTFTNNWVHWVKQRPGQGLEWTGMIHPDSGSTIYNEKFQSKATLTVDKSSSTAYMQLSSLTSEDSAVYYCARGYYDSSSYYAMDYWGQGTSVTVSS
VL: NIQMTQTTSSLSASLGDRVTISCSASQGIFNYLNWYQQKPDGTVKLLIYYTSSLHSGVPSRFSGSGSGTDYSLTISNLEPEDIATYYCQQYSKLPWTFGGGTKLEIKR
notes: Chimeric
